From publication PMC2613632 (The Journal of Biological Chemistry, 2009)

Target: the molecule itself
Assay: native MS

B1: MacB, His-tagged, purified (natural protein, E. coli, UniProt P75831 1-648, looked up)
chain: MTPLLELKDIRRSYPAGDEQVEVLKGISLDIYAGEMVAIVGASGSGKSTLMNILGCLDKATSGTYRVAGQDVATLDADALAQLRREHFGFIFQRYHLLSHLTAEQNVEVPAVYAGLERKQRLLRAQELLQRLGLEDRTEYYPAQLSGGQQQRVSIARALMNGGQVILADEPTGALDSHSGEEVMAILHQLRDRGHTVIIVTHDPQVAAQAERVIEIRDGEIVRNPPAIEKVNVTGGTEPVVNTVSGWRQFVSGFNEALTMAWRALAANKMRTLLTMLGIIIGIASVVSIVVVGDAAKQMVLADIRSIGTNTIDVYPGKDFGDDDPQYQQALKYDDLIAIQKQPWVASATPAVSQNLRLRYNNVDVAASANGVSGDYFNVYGMTFSEGNTFNQEQLNGRAQVVVLDSNTRRQLFPHKADVVGEVILVGNMPARVIGVAEEKQSMFGSSKVLRVWLPYSTMSGRVMGQSWLNSITVRVKEGFDSAEAEQQLTRLLSLRHGKKDFFTWNMDGVLKTVEKTTRTLQLFLTLVAVISLVVGGIGVMNIMLVSVTERTREIGIRMAVGARASDVLQQFLIEAVLVCLVGGALGITLSLLIAFTLQLFLPGWEIGFSPLALLLAFLCSTVTGILFGWLPARNAARLDPVDALARE
stoichiometry N: 2
